B1: library; numbered along this chain (parent)
chain: MATDAALRRLLRLHRTEIAVAVDSAFPLLHALADHDVVPEDKFQETLHLKEKEGCPQAFHALLSWLLTQDSTAILDFWRVLFKDYNLERYGRLQPILDSFPKDVDLSQPRKGRKPPAVPKALVPPPRLPTKRKASEEARAAAPAALTPRGTASPGSQLKAKPPKKPESSAEQQRLPLGNGIQTMSASVQRAVAMSSGDVPGARGAVEGILIQQVFESGGSKKCIQVGGEFYTPSKFEDSGSGKNKARSSSGPKPLVRAKGAQGAAPGGGEARLGQQGSVPAPLALPSDPQLHQKNEDECAVCRDGGELICCDGCPRAFHLACLSPPLREIPSGTWRCSSCLQATVQEVQPRAEEPRPQEPPVETPLPPGLRSAGEEVRGPPGEPLAGMDTTLVYKHLPAPPSAAPLPGLDSSALHPLLCVGPEGQQNLAPGARCGVCGDGTDVLRCTHCAAAFHWRCHFPAGTSRPGTGLRCRSCSGDVTPAPVEGVLAPSPARLAPGPAKDDTASHEPALHRDDLESLLSEHTFDGILQWAIQSMARPAAPFPS

Variants of: B1
Assay: AIRE transcriptional activation functional score (insulin promoter-GFP; nonsense median 0, synonymous median 1) (normalised score); higher = higher AIRE activity (more reporter activation)
Conditions: with insulin promoter-GFP reporter in HEK293
Protocol: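 Deep mutational scan of full-length human AIRE (codon-optimized cDNA, DT-POPCode NNN libraries over three regions) integrated at a Bxb1 landing pad in HEK293 cells carrying an insulin core promoter-GFP reporter at a Flp-In site. Cells were sorted for the top 10% GFP about 14 days after transfection. Variant frequency log-ratios (select vs non-select, TileSeq) were rescaled so that the nonsense median is 0 and the synonymous median is 1, then averaged over biological replicates.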

AIRE transcriptional activation functional score of substitutions, site by site:
G263: D 1.31, S 1.23, C 0.73, V 1.25, L 0.99, E 1.42, F 0.212, Q -0.785, I -0.607, T 1.06, A 0.875, H 0.227, W 1.29, M 0.957, K 1.27, P 0.887, Y 1.34, R 0.812
Q262: D 1.13, I 1.04, N 1.13, Y 1.05, P 1.16, V 0.657, K 0.987, W 1.26, R 0.909, A 1.2, T 0.795, M 0.443, F 1.61, C 0.939, S 0.84, G 1.33, H 0.819, L 1.31, E 1.38
A264: P 0.912, V 1.07, S 1.18, C 0.799, W 1.57, L 1.18, H 1.68, Q 0.566, D -0.0126, K 0.671, G 1.29, T 1.22, I -1.66, E 0.901, R 1.05, Y -0.0795, M 1.01, F 1
A265: P 0.806, C 0.821, K 0.641, F 1.53, D 0.751, M 1.55, I 0.975, S 1.03, Y 1.25, T 1.01, L 1.21, E 0.963, W 0.598, R 0.748, Q 0.479, V 1.11, H 0.76, G 0.964, N 1.54
G268: W 1.62, P 0.869, S 1.09, E 1.14, Y 0.298, M 1.12, D 0.854, K 0.831, Q 0.515, T 0.742, A 0.981, I 1.19, H 0.564, L 1.05, C 1.21, N 0.988, R 1.09, V 1.02, F 1.38
P266: V 0.93, H 1.08, Q 0.916, E 0.486, Y 1.06, C 1.09, G 0.877, K 1.19, M 1.44, D 0.85, R 0.795, F 1.38, T 1.05, S 0.824, I 1.13, W 0.984, N 0.956, A 1.01, L 0.925
A261: P 1.06, I 0.612, G 1.01, Q 1.17, C 1.11, V 1.13, W 1.33, L 0.746, M 1.19, R 0.741, T 1.07, F 1.22, N 0.506, H 0.579, S 0.631, K 0.843, D 0.731, Y 1.12, E 1.11
G267: H 1.38, P 0.902, T 1.8, E 1.87, R 0.84, D 0.595, V 1.12, Y 1.02, S 0.894, I 1.18, W 1.49, N 0.868, C 1.11, L 0.938, A 0.9
G260: K 0.721, V 1.3, Y 1.14, L 1.29, R 1.04, H 1.19, M 2.15, F 0.949, N 1.12, S 1.12, W 1.18, T 1.26, I 1.39
G269: I 1.06, H 0.996, D 0.649, K 1.07, A 1.39, C 0.879, E 1.1, F 1.42

Source: the supplement of paper PMC12667976
